Test results as given in paper PMC12216130, “Structural basis for the interaction between the bacterial cell division proteins FtsZ and ZapA” (Nature Communications, 2025).

B1: K. pneumoniae FtsZ (natural protein, UniProt W9BCK7 1-383, looked up)
chain: MFEPMELTNDAVIKVIGVGGGGGNAVEHMVRERIEGVEFFAVNTDAQALRKTAVGQTIQIGSGITKGLGAGANPEVGRNAADEDREALRAALDGADMVFIAAGMGGGTGTGAAPVVAEVAKDLGILTVAVVTKPFNFEGKKRMAFAEQGITELSKHVDSLITIPNDKLLKVLGRGISLLDAFGAANDVLKGAVQGIAELITRPGLMNVDFADVRTVMSEMGYAMMGSGVASGEDRAEEAAEMAISSPLLEDIDLSGARGVLVNITAGFDLRLDEFETVGNTIRAFASDNATVVIGTSLDPDMNDELRVTVVATGIGMDKRPEITLVTNKQVQQPVMDRYQQHGMSPLTQEQKPAAKVVNDNTPQTAKEPDYLDIPAFLRKQAD
notes: polymerised into protofilaments with GMPCPP, GTP or GMPPNP in the assays; also called KpFtsZ; wild-type FtsZ
B2: K. pneumoniae ZapA (natural protein)
chain: MSAQPVDLQIFGRSLRVNCPPEQRDALNQAAEDLNQRLQDLKERTRVTNTEQLVFIAALNISYELTQEKAKTRDYASSMEQRIRMLQQTIEQALLEQGRISE
notes: ZapA of Klebsiella pneumoniae; synthetic gene codon-optimised for E. coli in pColdI-TEV; Tetramer in the structures; also called KpZapA; source: E. coli, purified (HisTrap, TEV cleavage, second HisTrap, Superdex200 SEC); not shown: His6, N-terminal, cleaved

Biological target: the molecule itself
Assay: cryo-EM structure; 7.4 uM KpFtsZ, 14.9 uM KpZapA (2x molar excess), 0.6 mM GMPCPP, 17 mM HEPES pH 7.5, 8.6 mM NaCl, 60 mM KCl, 3 mM MgCl2, on ice 15 min; helical refinement to 2.73 A; same data re-analysed with the focus on ZapA (3.89 and 4.27 A maps, 2D classes)

Protein | binding result | stoichiometry N
B1 | binds | –
B2 | – | 4
